Test [1] concerns the target T1, TLR4 stably expressed on HEK293 cells (HEK/TLR4) (UniProt O00206 24-839, limits assumed). The test can be described thus: cell-based or functional assay.
In test [2] the target is T1, TLR4 stably expressed on HEK293 cells …. The test can be described thus: inferred from dose-dependent inhibition of HEK/TLR4 activation by the wt complex (IL-8).
The target is the same in test [3]. Briefly: competition: excess free MD-2 against ^3H-LOS:MD-2 on HEK/TLR4 cells, liquid scintillation.
The target is the same in test [4]. Briefly: inferred from intermediate inhibition of HEK/TLR4 activation by LOS:MD-2 (IL-8).
The target is the same in test [5]. The test can be described thus: cell association of radiolabelled complex with HEK/TLR4 cells, overnight 37 C, liquid scintillation (FIG. 3).

Residue numbers refer to the chain shown, from its start. In names and notes the source's numbering stands.

The record followed here is patent US20090110692A1 (UNIVERSITY OF IOWA RESEARCH FOUNDATION, published 2009).

T1 sequence (O00206 24-839 limits assumed): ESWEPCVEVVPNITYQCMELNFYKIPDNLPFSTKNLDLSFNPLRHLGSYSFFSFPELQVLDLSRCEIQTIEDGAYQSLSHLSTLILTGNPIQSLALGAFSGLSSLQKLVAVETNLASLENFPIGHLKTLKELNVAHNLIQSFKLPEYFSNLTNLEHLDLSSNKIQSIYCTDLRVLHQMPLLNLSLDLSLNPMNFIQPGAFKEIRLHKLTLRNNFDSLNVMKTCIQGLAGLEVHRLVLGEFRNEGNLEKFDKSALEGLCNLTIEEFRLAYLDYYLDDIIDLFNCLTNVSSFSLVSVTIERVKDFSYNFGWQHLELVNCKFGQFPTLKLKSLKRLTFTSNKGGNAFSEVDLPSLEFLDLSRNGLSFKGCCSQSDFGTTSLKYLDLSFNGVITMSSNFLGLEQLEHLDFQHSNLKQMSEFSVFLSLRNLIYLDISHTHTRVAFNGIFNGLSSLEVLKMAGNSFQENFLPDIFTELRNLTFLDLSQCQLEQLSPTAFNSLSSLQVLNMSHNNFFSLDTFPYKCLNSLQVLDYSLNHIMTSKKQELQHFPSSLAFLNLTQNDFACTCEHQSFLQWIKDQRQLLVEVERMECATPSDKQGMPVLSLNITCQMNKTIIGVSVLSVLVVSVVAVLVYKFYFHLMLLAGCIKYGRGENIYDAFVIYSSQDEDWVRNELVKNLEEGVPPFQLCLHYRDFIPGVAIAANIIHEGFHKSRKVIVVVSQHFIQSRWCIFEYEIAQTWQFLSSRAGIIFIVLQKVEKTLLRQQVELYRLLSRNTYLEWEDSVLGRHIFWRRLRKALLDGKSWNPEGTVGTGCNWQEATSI

B1: E:MD-2 K125A.F126A (monomeric complex of wild-type endotoxin with MD-2 mutant K125A.F126A) (ligand)
chain: QKQYWVCNSSDASISYTYCDKMQYPISINVNPCIELKRSKGLLHIFYIPRRDLKQLYFNLYITVNTMNLPKRKEVICRGSDDDYSFCRALKGETVNTTISFSFKGIAASKGKYKCVVEAISGSPEEMLFCLEFVILHQPNSN
For B1, the “activation (IL-8) of HEK/TLR4 cells relative to wt E:MD-2” value in test [1] was approximately 10%.

B2: E:MD-2 (F126A) (monomeric complex of wild-type LOS with MD-2 mutant F126A) (ligand)
chain: B1 chain with A107K
notes: also called LOS:MD-2 (F126A); F126A MD-2 mutant
In the case of B2, the binding result in test [2] was “binds”.

B3: soluble recombinant wild-type MD-2-His6 (not complexed to endotoxin), in dialyzed conditioned insect cell medium (other, human)
chain: QKQYWVCNSSDASISYTYCDKMQYPISINVNPCIELKRSKGLLHIFYIPRRDLKQLYFNLYITVNTMNLPKRKEVICRGSDDDYSFCRALKGETVNTTISFSFKGIKFSKGKYKCVVEAISGSPEEMLFCLEFVILHQPNSNHHHHHH
notes: Used as unpurified conditioned medium (about 10 ng MD-2 per microliter after concentration); also called wt MD-2; rMD-2
With B3, the binding result in test [3] is on record as “binds”.

B4: soluble recombinant C95Y mutant MD-2-His6, in dialyzed conditioned insect cell medium (other, human)
chain: B3 chain with C77Y
notes: also called C95Y MD-2
Consider B4, for which the binding result in test [4] is on record as “binds”.

B5: LOS:sCD14 complex (monomeric complex of N. meningitidis lipooligosaccharide with soluble CD14, Mr ~60,000) (other)
chain: TTPEPCELDDEDFRCVCNFSEPQPDWSEAFQCVSAVEVEIHAGGLNLEPFLKRVDADADPRQYADTVKALRVRRLTVGAAQVPAQLLVGALRVLAYSRLKELTLEDLKITGTMPPLPLEATGLALSSLRLRNVSWATGRSWLAELQQWLKPGLKVLSIAQAHSPAFSCEQVRAFPALTSLDLSDNPGLGERGLMAALCPHKFPAIQNLALRNTGMETPTGVCAALAAAGVQPHSLDLSHNSLRATVNPSAPRCMWSSALNSLNLSFAGLEQVPKGLPAKLRVLDLSCNRLNRAPQPDELPEVDNLTLDGNPFLVPGTALPHEGSMNSGVVPACARSTLSVGVSGTLVL
notes: also called ^3H-LOS:sCD14; endotoxin:sCD14
Consider B5, for which the binding result in test [5] is on record as “no binding (tested: 0.75 ng/ml ^3H-LOS)”.
